Assay results reported in article PMC5770551.

Target: CbpAC (pneumococcal surface protein C variant) of nonencapsulated Streptococcus pneumoniae strain MNZ41 (Streptococcus pneumoniae (nonencapsulated strain MNZ41))
Experiment: flow cytometry on cells; 10^7 CFU viable pneumococci incubated with 200 µl of 10 µg/ml nonspecific mouse IgA for 1 h on ice; detected with biotinylated goat anti-mouse IgA and streptavidin-Alexa Fluor 488; percent positive cells gated above background

Work on nonspecific mouse IgA (antibody) yielded a percent positive cells (MNZ41 bacteria expressing CbpAC) of 58.6%.
